Paper PMC4650695

Legend:
[1] = target: ICP27Δ241 (HSV-1 ICP27 C-terminal residues 241-512) (Herpes simplex virus 1 (HSV-1)) (UniProt P10238); assay: AUC; sedimentation velocity, 1 mg/mL in 20 mM HEPES pH 7.4, 150 mM NaCl, 40000 RPM, 20 °C
[2] = target: ICP27Δ241 (HSV-1 ICP27 C-terminal residues 241-512) (Herpes simplex virus 1 (HSV-1)) (UniProt P10238); assay: SEC-MALS; 0.5 mL at 1 mg/mL on Superdex 200 10/300GL, 0.75 mL/min in gel filtration buffer (20 mM Tris, 150 mM NaCl, 50 mM L-Arg, 50 mM L-Glu, 50 mM L-Pro, 0.1 mM TCEP, 10 μM ZnCl2, pH 8.5)
[3] = target: ICP27Δ215 (HSV-1 ICP27 residues 215-512) (Herpes simplex virus 1 (HSV-1)) (UniProt P10238); assay: AUC; sedimentation velocity, 1 mg/mL in 20 mM HEPES pH 7.4, 150 mM NaCl, 40000 RPM, 20 °C
[4] = target: ICP27Δ215 (HSV-1 ICP27 residues 215-512) (Herpes simplex virus 1 (HSV-1)) (UniProt P10238); assay: SEC-MALS; 0.5 mL at 1 mg/mL on Superdex 200 10/300GL, 0.75 mL/min in gel filtration buffer (20 mM Tris, 150 mM NaCl, 50 mM L-Arg, 50 mM L-Glu, 50 mM L-Pro, 0.1 mM TCEP, 10 μM ZnCl2, pH 8.5)
[5] = target: ICP27Δ189 (HSV-1 ICP27 residues 189-512) (Herpes simplex virus 1 (HSV-1)) (UniProt P10238); assay: AUC; sedimentation velocity, 1 mg/mL in 20 mM HEPES pH 7.4, 150 mM NaCl, 40000 RPM, 20 °C
[6] = target: ICP27Δ189 (HSV-1 ICP27 residues 189-512) (Herpes simplex virus 1 (HSV-1)) (UniProt P10238); assay: SEC-MALS; 0.5 mL at 1 mg/mL on Superdex 200 10/300GL, 0.75 mL/min in gel filtration buffer (20 mM Tris, 150 mM NaCl, 50 mM L-Arg, 50 mM L-Glu, 50 mM L-Pro, 0.1 mM TCEP, 10 μM ZnCl2, pH 8.5)

ICP27Δ241 (HSV-1 ICP27 C-terminal residues 241-512) (from UniProt P10238 241-512) (domain or fragment)
stoichiometry N [1]: 2 | stoichiometry N [2]: 2

ICP27Δ215 (HSV-1 ICP27 residues 215-512) (from UniProt P10238 215-512) (domain or fragment)
stoichiometry N [3]: 2 | stoichiometry N [4]: 2

ICP27Δ189 (HSV-1 ICP27 residues 189-512) (from UniProt P10238 189-512) (domain or fragment)
stoichiometry N [5]: 2 | stoichiometry N [6]: 2
